{
  "source": "paper PMC10132808",
  "about": "“Stimulation of the catalytic activity of the tyrosine kinase Btk by the adaptor protein Grb2” (eLife, 2023)",
  "biological_target": "T1, Grb2 labeled with Alexa Fluor 647 (UniProt P62993 1-217, Alexa Fluor 647 C2 maleimide on a surface cysteine (at most one per molecule; about 17% labeling overall))",
  "T1 construct": "The labeled cysteine is not identified; Only about 17% of the preparation carries the dye; also called Grb2-AlexaFluor647; source: E. coli BL21(DE3), purified (HisTrap, TEV cleavage, gel filtration), labeled by maleimide coupling; not shown: His6, N-terminal, cleaved",
  "T1 sequence (P62993 whole entry)": "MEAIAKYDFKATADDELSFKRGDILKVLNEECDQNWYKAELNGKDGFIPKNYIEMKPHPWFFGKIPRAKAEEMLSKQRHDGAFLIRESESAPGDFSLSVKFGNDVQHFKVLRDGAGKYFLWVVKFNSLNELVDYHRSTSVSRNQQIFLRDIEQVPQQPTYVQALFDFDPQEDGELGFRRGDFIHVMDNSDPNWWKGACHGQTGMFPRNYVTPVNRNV",
  "assay": "TIRF microscopy of recruitment to supported-lipid bilayers; N-terminally His-tagged Btk constructs tethered to bilayers with 4% DGS-NTA(Ni), 96% DOPC, washed after equilibration; Grb2-Alexa Fluor 647 added; fluorescence at the membrane over time",
  "details": "both partners purified",
  "data": [
    {"binder": "RNGSLKPGSSHRKTKKPLPPTPEEDQILKKPLPPEPAAAPVSTS (domain or fragment, human, UniProt Q06187 171-214, looked up, Btk, human, residues 171-214 (proline-rich linker between the PH-TH module and the SH3 domain); A SUMO module may also be kept, because the protease step was left out; also called the isolated proline-rich linker; source: E. coli BL21(DE3), purified (HisTrap, gel filtration; protease step left out); not shown: His6, N-terminal, kept)", "note": "[His-tagged Btk proline-rich linker]", "values": [
      {"measurement": "binding result", "value": "binds"}
    ]}
  ]
}
